Kd data for six molecules are collected here from patent US20210388110A1 (published 2021).

The target of this test is T1, soluble human CD3ε chain (human, UniProt P07766 23-126, limits assumed).
T1 construct: the text says soluble human CD3ε chain; also called human CD3 epsilon chain
Kind of test: SPR (Biacore). (Surface plasmon resonance follows binding to a sensor surface in real time, without labels.)

T1 sequence (P07766 23-126 limits assumed): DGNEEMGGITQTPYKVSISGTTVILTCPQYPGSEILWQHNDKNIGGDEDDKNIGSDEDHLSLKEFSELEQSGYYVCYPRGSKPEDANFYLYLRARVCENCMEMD

B1: TR01H047-E22Hh/none-Hi-Kn010G3/L0000-k0 (antibody, human IgG1, kappa, L234A L235A, N297A)
heavy: QVQLVESGGGLVQPGRSLRLSCAASGFTFSNAWMHWVRQAPGKGLEWVAQIKDKSNNYATYYAESVKGRFTISRDDSKNSIYLQMNSLKTEDTAVYYCRYVHYSASYGVDIWGQGTTVTVSSASTKGPSVFPLAPSSKSTSGGTAALGCLVKDYFPEPVTVSWNSGALTSGVHTFPAVLQSSGLYSLSSVVTVPSSSLGTQTYICNVNHKPSNTKVDKKVEPKSCDKTHTCPPCPAPEAAGGPSVFLFPPKPKDTLMISRTPEVTCVVVDVSHEDPEVKFNWYVDGVEVHNAKTKPREEQYASTYRVVSVLTVLHQDWLNGKEYKCKVSNKALPAPIEKTISKAKGQPREPQVYTLPPSRCELTKNQVSLSCAVKGFYPSDIAVEWESNGQPENNYKTTPPVLDSDGSFFLVSKLTVDKSRWQQGNVFSCSVMHEALHNHYTQKSLSLSPDYKDDDDK
chain: EPKSSDKTHTCPPCPAPELLGGPSVFLFPPKPKDTLMISRTPEVTCVVVDVSHEDPEVKFNWYVDGVEVHNAKTKPREEQYNSTYRVVSVLTVLHQDWLNGKEYKCKVSNKALPAPIEKTISKAKGQPREPQVCTLPPSRDELTKNQVSLWCLVKGFYPSDIAVEWESNGQPENNYKTTPPVLDSDGSFFLYSKLTVDKSRWQQGNVFSCSVMHEALHNRYTQKSLSLSP
light: DIVMTQSPLSLPVTPGEPASISCRSSQSLVHSNRNTYLHWYQQKPGQAPRLLIYKVSNRFSGVPDRFSGSGSGTDFTLKISRVEAEDVGVYYCGQGTQVPYTFGQGTKLEIKRTVAAPSVFIFPPSDEQLKSGTASVVCLLNNFYPREAKVQWKVDNALQSGNSQESVTEQDSKDSTYSLSSTLTLSKADYEKHKVYACEVTHQGLSSPVTKSFNRGEC
notes: single-arm
A word on the Kd: it is a measure of binding affinity in units of concentration. A lower Kd goes with tighter binding. B1 had a dissociation constant (Kd) of 20.4 nM.

B2: TR01H051-E22Hh/none-Hi-Kn010G3/L0000-k0 (antibody, human IgG1, kappa, L234A L235A, N297A)
heavy: QVQLVESGGGLVQPGRSLRLSCAASGFTFSNAWMHWVRQAPGKGLEWVAQIKDKSNNYATYYAESVKGRFTISRADSKNSLYLQMNSLKTEDTAVYYCRYVHYSASYGVDIWGQGTTVTVSSASTKGPSVFPLAPSSKSTSGGTAALGCLVKDYFPEPVTVSWNSGALTSGVHTFPAVLQSSGLYSLSSVVTVPSSSLGTQTYICNVNHKPSNTKVDKKVEPKSCDKTHTCPPCPAPEAAGGPSVFLFPPKPKDTLMISRTPEVTCVVVDVSHEDPEVKFNWYVDGVEVHNAKTKPREEQYASTYRVVSVLTVLHQDWLNGKEYKCKVSNKALPAPIEKTISKAKGQPREPQVYTLPPSRCELTKNQVSLSCAVKGFYPSDIAVEWESNGQPENNYKTTPPVLDSDGSFFLVSKLTVDKSRWQQGNVFSCSVMHEALHNHYTQKSLSLSPDYKDDDDK
chain: EPKSSDKTHTCPPCPAPELLGGPSVFLFPPKPKDTLMISRTPEVTCVVVDVSHEDPEVKFNWYVDGVEVHNAKTKPREEQYNSTYRVVSVLTVLHQDWLNGKEYKCKVSNKALPAPIEKTISKAKGQPREPQVCTLPPSRDELTKNQVSLWCLVKGFYPSDIAVEWESNGQPENNYKTTPPVLDSDGSFFLYSKLTVDKSRWQQGNVFSCSVMHEALHNRYTQKSLSLSP
light: DIVMTQSPLSLPVTPGEPASISCRSSQSLVHSNRNTYLHWYQQKPGQAPRLLIYKVSNRFSGVPDRFSGSGSGTDFTLKISRVEAEDVGVYYCGQGTQVPYTFGQGTKLEIKRTVAAPSVFIFPPSDEQLKSGTASVVCLLNNFYPREAKVQWKVDNALQSGNSQESVTEQDSKDSTYSLSSTLTLSKADYEKHKVYACEVTHQGLSSPVTKSFNRGEC
notes: single-arm
Regarding B2, the affinity, expressed as Kd, was 29.1 nM.

B3: TR01H050-E22Hh/none-Hi-Kn010G3/L0000-k0 (antibody, human IgG1, kappa, L234A L235A, N297A)
heavy: QVQLVESGGGLVQPGRSLRLSCAASGFTFSNAWMHWVRQAPGKGLEWVAQIKDKSQNYATYYAESVKGRFTISRDDSKNSIYLQMNSLKTEDTAVYYCRYVHYSASYGVDYWGQGTTVTVSSASTKGPSVFPLAPSSKSTSGGTAALGCLVKDYFPEPVTVSWNSGALTSGVHTFPAVLQSSGLYSLSSVVTVPSSSLGTQTYICNVNHKPSNTKVDKKVEPKSCDKTHTCPPCPAPEAAGGPSVFLFPPKPKDTLMISRTPEVTCVVVDVSHEDPEVKFNWYVDGVEVHNAKTKPREEQYASTYRVVSVLTVLHQDWLNGKEYKCKVSNKALPAPIEKTISKAKGQPREPQVYTLPPSRCELTKNQVSLSCAVKGFYPSDIAVEWESNGQPENNYKTTPPVLDSDGSFFLVSKLTVDKSRWQQGNVFSCSVMHEALHNHYTQKSLSLSPDYKDDDDK
chain: EPKSSDKTHTCPPCPAPELLGGPSVFLFPPKPKDTLMISRTPEVTCVVVDVSHEDPEVKFNWYVDGVEVHNAKTKPREEQYNSTYRVVSVLTVLHQDWLNGKEYKCKVSNKALPAPIEKTISKAKGQPREPQVCTLPPSRDELTKNQVSLWCLVKGFYPSDIAVEWESNGQPENNYKTTPPVLDSDGSFFLYSKLTVDKSRWQQGNVFSCSVMHEALHNRYTQKSLSLSP
light: DIVMTQSPLSLPVTPGEPASISCRSSQSLVHSNRNTYLHWYQQKPGQAPRLLIYKVSNRFSGVPDRFSGSGSGTDFTLKISRVEAEDVGVYYCGQGTQVPYTFGQGTKLEIKRTVAAPSVFIFPPSDEQLKSGTASVVCLLNNFYPREAKVQWKVDNALQSGNSQESVTEQDSKDSTYSLSSTLTLSKADYEKHKVYACEVTHQGLSSPVTKSFNRGEC
notes: single-arm
For B3, the Kd came to 57.6 nM.

B4: TR01H052-E22Hh/none-Hi-Kn010G3/L0000-k0 (antibody, human IgG1, kappa, L234A L235A, N297A)
heavy: QVQLVESGGGLVQPGRSLRLSCAASGFTFSNAWMHWVRQAPGKGLEWVAQIKDKSQNYATYYAESVKGRFTISRADSKNSLYLQMNSLKTEDTAVYYCRYVHYSASYGVDIWGQGTTVTVSSASTKGPSVFPLAPSSKSTSGGTAALGCLVKDYFPEPVTVSWNSGALTSGVHTFPAVLQSSGLYSLSSVVTVPSSSLGTQTYICNVNHKPSNTKVDKKVEPKSCDKTHTCPPCPAPEAAGGPSVFLFPPKPKDTLMISRTPEVTCVVVDVSHEDPEVKFNWYVDGVEVHNAKTKPREEQYASTYRVVSVLTVLHQDWLNGKEYKCKVSNKALPAPIEKTISKAKGQPREPQVYTLPPSRCELTKNQVSLSCAVKGFYPSDIAVEWESNGQPENNYKTTPPVLDSDGSFFLVSKLTVDKSRWQQGNVFSCSVMHEALHNHYTQKSLSLSPDYKDDDDK
chain: EPKSSDKTHTCPPCPAPELLGGPSVFLFPPKPKDTLMISRTPEVTCVVVDVSHEDPEVKFNWYVDGVEVHNAKTKPREEQYNSTYRVVSVLTVLHQDWLNGKEYKCKVSNKALPAPIEKTISKAKGQPREPQVCTLPPSRDELTKNQVSLWCLVKGFYPSDIAVEWESNGQPENNYKTTPPVLDSDGSFFLYSKLTVDKSRWQQGNVFSCSVMHEALHNRYTQKSLSLSP
light: DIVMTQSPLSLPVTPGEPASISCRSSQSLVHSNRNTYLHWYQQKPGQAPRLLIYKVSNRFSGVPDRFSGSGSGTDFTLKISRVEAEDVGVYYCGQGTQVPYTFGQGTKLEIKRTVAAPSVFIFPPSDEQLKSGTASVVCLLNNFYPREAKVQWKVDNALQSGNSQESVTEQDSKDSTYSLSSTLTLSKADYEKHKVYACEVTHQGLSSPVTKSFNRGEC
notes: single-arm
B4 displayed a Kd of 62.7 nM.

B5: TR01H048-E22Hh/none-Hi-Kn010G3/L0000-k0 (antibody, human IgG1, kappa, L234A L235A, N297A)
heavy: QVQLVESGGGLVQPGRSLRLSCAASGFTFSNAWMHWVRQAPGKGLEWVAQIKDKSQNYATYYAESVKGRFTISRDDSKNSIYLQMNSLKTEDTAVYYCRYVHYSASYGVDIWGQGTTVTVSSASTKGPSVFPLAPSSKSTSGGTAALGCLVKDYFPEPVTVSWNSGALTSGVHTFPAVLQSSGLYSLSSVVTVPSSSLGTQTYICNVNHKPSNTKVDKKVEPKSCDKTHTCPPCPAPEAAGGPSVFLFPPKPKDTLMISRTPEVTCVVVDVSHEDPEVKFNWYVDGVEVHNAKTKPREEQYASTYRVVSVLTVLHQDWLNGKEYKCKVSNKALPAPIEKTISKAKGQPREPQVYTLPPSRCELTKNQVSLSCAVKGFYPSDIAVEWESNGQPENNYKTTPPVLDSDGSFFLVSKLTVDKSRWQQGNVFSCSVMHEALHNHYTQKSLSLSPDYKDDDDK
chain: EPKSSDKTHTCPPCPAPELLGGPSVFLFPPKPKDTLMISRTPEVTCVVVDVSHEDPEVKFNWYVDGVEVHNAKTKPREEQYNSTYRVVSVLTVLHQDWLNGKEYKCKVSNKALPAPIEKTISKAKGQPREPQVCTLPPSRDELTKNQVSLWCLVKGFYPSDIAVEWESNGQPENNYKTTPPVLDSDGSFFLYSKLTVDKSRWQQGNVFSCSVMHEALHNRYTQKSLSLSP
light: DIVMTQSPLSLPVTPGEPASISCRSSQSLVHSNRNTYLHWYQQKPGQAPRLLIYKVSNRFSGVPDRFSGSGSGTDFTLKISRVEAEDVGVYYCGQGTQVPYTFGQGTKLEIKRTVAAPSVFIFPPSDEQLKSGTASVVCLLNNFYPREAKVQWKVDNALQSGNSQESVTEQDSKDSTYSLSSTLTLSKADYEKHKVYACEVTHQGLSSPVTKSFNRGEC
notes: single-arm
Molecule B5 had a dissociation constant (Kd) of 45.2 nM.

B6: TR01H049-E22Hh/none-Hi-Kn010G3/L0000-k0 (antibody, human IgG1, kappa, L234A L235A, N297A)
heavy: QVQLVESGGGLVQPGRSLRLSCAASGFTFSNAWMHWVRQAPGKGLEWVAQIKDKSQNYATYYAESVKGRFTISRDDSKNSIYLQMNSLKTEDTAVYYCRYVHYSASYGVDAWGQGTTVTVSSASTKGPSVFPLAPSSKSTSGGTAALGCLVKDYFPEPVTVSWNSGALTSGVHTFPAVLQSSGLYSLSSVVTVPSSSLGTQTYICNVNHKPSNTKVDKKVEPKSCDKTHTCPPCPAPEAAGGPSVFLFPPKPKDTLMISRTPEVTCVVVDVSHEDPEVKFNWYVDGVEVHNAKTKPREEQYASTYRVVSVLTVLHQDWLNGKEYKCKVSNKALPAPIEKTISKAKGQPREPQVYTLPPSRCELTKNQVSLSCAVKGFYPSDIAVEWESNGQPENNYKTTPPVLDSDGSFFLVSKLTVDKSRWQQGNVFSCSVMHEALHNHYTQKSLSLSPDYKDDDDK
chain: EPKSSDKTHTCPPCPAPELLGGPSVFLFPPKPKDTLMISRTPEVTCVVVDVSHEDPEVKFNWYVDGVEVHNAKTKPREEQYNSTYRVVSVLTVLHQDWLNGKEYKCKVSNKALPAPIEKTISKAKGQPREPQVCTLPPSRDELTKNQVSLWCLVKGFYPSDIAVEWESNGQPENNYKTTPPVLDSDGSFFLYSKLTVDKSRWQQGNVFSCSVMHEALHNRYTQKSLSLSP
light: DIVMTQSPLSLPVTPGEPASISCRSSQSLVHSNRNTYLHWYQQKPGQAPRLLIYKVSNRFSGVPDRFSGSGSGTDFTLKISRVEAEDVGVYYCGQGTQVPYTFGQGTKLEIKRTVAAPSVFIFPPSDEQLKSGTASVVCLLNNFYPREAKVQWKVDNALQSGNSQESVTEQDSKDSTYSLSSTLTLSKADYEKHKVYACEVTHQGLSSPVTKSFNRGEC
notes: single-arm
Take B6: the Kd amounted to 67.9 nM.
